Assay results reported in US20230374148A1, “BINDING MOLECULES THAT MULTIMERISE CD45” (UCB BIOPHARMA SRL, priority 2020, published 2023).

Test system: CD34+ stem cells in PBMCs
Test: Apoptosis of peripheral blood haematopoietic stem cells in PBMCs
Type: cell-based, human
Conditions: 24 hrs, 200-0.00632 nM
Experimental: Human whole blood (K2EDTA tubes) was received from one donor (#PR20T386505, from Cambridge Bioscience, UK). PBMCs were isolated from whole blood using pre-filled LeucoSep tubes (Greiner). Whole blood was layered on to the LeucoSep filter and tubes spun (800 g, 15 min, slow acceleration and deceleration, at RT). The buffy coat was extracted and cells washed twice in sterile PBS. PBMC were resuspended in 50 ml complete media (RPMI 1640+2 mM GlutaMAX+1% Pen/Strep, all previously supplied by Invitrogen, +10% Fetal Bovine Serum (FBS), Sigma Aldrich). Cells were counted using a ChemoMetec NucleoCounter NC-3000. 1×10^6 cells per well in 80 μl were then added to each well of a Corning Costar 96-well, cell culture treated, U-shaped-bottom microplate (cat no. 07-200-95).
In a Greiner 96-well non-binding microplate, Fab-X and Fab-Y combination 6294-X/4133-Y, was added to complete media to give a Fab-KD-Fab concentration of 1000 nM. Similarly, 1000 nM stocks of 4133-6294 BYbe and NegCtrl BYbe were prepared in complete media. The microplate was incubated for 1 hr at 37° C., 5% CO2. Following the incubation, Fab-KD-Fab and BYbe reagents were then serially diluted in complete media in a half log dilution series, 7 times to produce an 8-point dose curve. […]
Cells were analysed using the Bio-Rad ZE5 Cell Analyzer. […]

B1: 4133-6294 BYbe: anti-CD45 BYbe (Fab-scFv): 4133 Fab HC-G4S linker-6294 scFv heavy chain paired with 4133 light chain (antibody)
heavy: QEQLVESGGGLVQPEGSLTLTCTASGFSFSGNYYMCWVRQAPGKGLEWIGCLYTGSSGSTYYASWAKGRFTISKTSSTTVTLQMTSLTAADTATYFCARDLGYEIDGYGGLWGQGTLVTVSSGQPKAPSVFPLAPCCGDTPSSTVTLGCLVKGYLPEPVTVTWNSGTLTNGVRTFPSVRQSSGLYSLSSVVSVTSSSQPVTCNVAHPATNTKVDKTVAPSTCSKPGGGGSGGGGSEVQLVESGAELARPGASVKMSCKASGYTFTSYTMHWVKQRPGQCLEWIGYINPSSGYTEYNQKFKDKTTLTADKSSSTAYLQLSSLTSEDSAVYYCARVGDGFYPSWLAYWGQGTLVTVSSGGGGSGGGGSGGGGSGGGGSDIQMTQSPKFLLVSAGDRVTITCKASQSVRNDVAWYQQKPGQSPKLLIFYASKRYTGVPDRFTGSGYGTDFTFTISTVQAEDLAVYFCQQDYSSPTTFGCGTKLEIK
light: AQVLTQTPSPVSAVVGGTVSISCQASQSVYNNNNLSWYQQKPGQPPKLLIYDASKLASGVPSRFKGSGSGTQFTLTISGVQCDDAATYYCLGGYYSSGWYFAFGGGTKVVVKRTPVAPTVLIFPPAADQVATGTVTIVCVANKYFPDVTVTWEVDGTTQTTGIENSKTPQNSADCTYNLSSTLTLTSTQYNSHKEYTCKVTQGTTSVVQSFNRGDC
reductions in CD34+ stem cells: 53% | reductions in total lymphocytes: 98%
